The source of these data is patent US20080201790A1, “Method and product for regulating cell responsiveness to external signals” (priority 1993, published 2008).

In one test the test system is MAPK. The test can be described thus: MAPK activity in COS cells transfected with MEKK or Raf (Mono Q FPLC fractions). To be noted: overexpression in COS1 cells, deprived of serum, no added growth factor. The format is cell-based. As to the method: COS cells in 100-mm culture dishes were transfected with either the pCVMV5 expression vector alone (1 μg: control) or the pCVMV5 MEKK construct (1 μg: MEKK). After 48 hours, the cells were placed in serum-free medium containing bovine serum albumin (0.1 percent) for 16 to 18 hours to induce quiescence. […] After centrifugation for 10 minutes at maximum speed in a microfuge, COS cell lysates containing 0.5 to 1 mg of soluble protein were subjected to FPLC on a MONO Q column, and eluted fractions were assayed for MAPK activity according to the method described in Heasley et al., p. 545, 1992, Mol. Biol. Cell, Vol. 3.
COS cells were prepared using the method described in Example 3. […] FPLC MONO Q ion-exchange column fractions were prepared as described in Example 3 and assayed for MAPK activity according to the method described in Heasley et al., ibid.

The next test has as its system GST-Ras^V12. The test is described as follows: Binding of COS cell-expressed MEKK1 proteins to GST-Ras^V12 agarose. To be noted: COS cell lysates, immunoblot. The text has this: COS cells were transiently transfected by the DEAE-dextran protocol as generally described in Example 3. Cos cells were transfected with: (1) p-MEKK1 containing a nucleic acid molecule encoding MEKK1 as described in Lange-Carter et al. (Science 260:315-319, […]); (2) p-MEKKNH2 containing a nucleic acid molecule that encodes a 858 base pair Pvull(682)-Ncol(1541) restriction digest fragment of the amino terminus of MEKK1 ligated into pCMV5; (3) p-MEKKCOOH containing a nucleic acid molecule that encodes a 1435 base pair Ncol(1541)-Sspl(2976) restriction digest fragment that includes the entire kinase domain of MEKK1 ligated into pCMV5; (4) pCMV5 without insert; or (5) p-C4Raf containing a nucleic acid molecule that encodes the amino terminus of Raf-1 ligated into pCMV5. COS cells expressing the various MEKK1 proteins were […] COS cells expressing the various MEKK1 proteins were lysed in EB (1% Triton X-100, 10 mM Tris HCl [pH 7.4], 5 mM EDTA, 50 mM NaCl, 50 mM NaF, 0.1% bovine serum albumin, 0.2 U/ml aprotinin, 1 mM phenylmethylsulfonyl fluoride and 2 mM Na3 VO4). The lysates were separated into two equal parts for separate binding reactions. Half of the lysate was incubated with GST agarose (1.5 μg) while half of the lysate was incubated with GST-Ras^V12 agarose (1.5 μg) (purchased from UBI) for 1 hr at 4° C. The GST-Ras^V12 was preincubated at 30° C. for 30 min with 1 mM nucleotide (GDP or GTPγS). The nucleotide binding reaction was stopped by adding MgCl2 to a final concentration of 20 mM. After the 1 hr binding reaction the agarose beads were pelleted at 2000 rpm for 2 min and washed 3 times with PBS+1.0% Triton X-100. The washed agarose beads were boiled in Laemmli SDS sample buffer and the proteins resolved by SDS polyacrylamide gel electrophoresis. Proteins were transferred onto nitrocellulose for immunoblotting with antibodies specific for an NH2 terminal fusion protein (described in Example 1) or a COOH terminal peptide (described in Example 1).
(In general: Immunoblotting shows a protein as a band on a membrane.)

Another test relates to p38 MAPK. The test can be described thus: Tyrosine phosphorylation of p38 MAPK in COS cells transfected with MEKK 1 or MEKK 3. Format: cell-based. Conditions: forty-eight hours after transfection. As to the method: (§1) COS cells were transfected with the expression plasmid pCVM5 ligated to cDNA clones encoding either MEKK 1 or MEKK 3 protein, or a control pCVM5 plasmid lacking MEKK cDNA inserts. Forty-eight hours after transfection, the COS cells were lysed and the lysate fractionated on a Mono Q FPLC column using conditions described in Example 4. The fractions were analyzed for tyrosine phosphorylation of MAP kinase-like enzymes using the kinase assay described in Example 4.

Test [1] has as its system p42 and p44 forms of MAPK. The test can be described thus: Phosphorylation of p42 and p44 MAPK in COS cells transfected with MEKK 1 or MEKK 3. Format: cell-based. Conditions: forty-eight hours after transfection. As to the method:
as §1

The next test has as its system MEK-1. The test can be described thus: Phosphorylation of catalytically inactive MEK-1 by Mono Q fractions of MEKK-transfected COS cells. Format: biochemical, mouse. As to the method:
A cDNA encoding MEK-1 was obtained from mouse B cell cDNA templates with the polymerase chain reaction and oligodeoxynucleotide primers corresponding to portions of the 5′ coding region and 3′ untranslated region of MEK-1. […] Lysates from COS cells transfected with MEKK or mock-transfected (control) were subjected to FPLC on a Mono Q column as described above. […] Reactions were stopped by the addition of 5×SDS sample buffer (10 μl), 1×SDS buffer contains 2 percent SDS, 5 percent glycerol, 62.5 mM tris-HCl (pH 6.8), 5 percent β-mercaptoethanol, and 0.001 percent bromophenol blue. The samples were boiled for 3 minutes and subjected to SDS-PAGE and autoradiography.
Phosphorylation of kinase MEK-1 and MEKK was visable after 5 minutes and maximal after about 20 minutes. The time-dependent increase in MEKK phosphorylation correlated with a decreased mobility of the MEKK protein during SDS-PAGE. […] The slowly migrating species of MEKK were also detected by immunoblotting. Thus, expression of MEKK appears to activate MAPK by activating MEK.

[2] abbreviates: fraction 22, 0.15 μg catalytically inactive MEK-1.

B1: MEKK 1: MEK kinase 1 protein, SEQ ID No. 2 / 4 (protein)
chain: MVTAVPAVFSKLVTMLNASGSTHFTRMRRRLMAIADEVEIAEVIQLGVEDTVDGHQDSLQAVAPTSCLENSSLEHTVHREKTGKGLSATRLSASSEDISDRLAGVSVGLPSSTTTEQPKPAVQTKGRPHSQCLNSSPLSHAQLMFPAPSAPCSSAPSVPDISKHRPQAFVPCKIPSASPQTQRKFSLQFQRNCSEHRDSDQLSPVFTQSRPPPSSNIHRPKPSRPVPGSTSKLGDATKSSMTLDLGSASRCDDSFGGGGNSGNAVIPSDETVFTPVEDKCRLDVNTELNSSIEDLLEASMPSSDTTVTFKSEVAVLSPEKAENDDTYKDDVNHNQKCKEKMEAEEEEALAIAMAMSASQDALPIVPQLQVENGEDIIIIQQDTPETLPGHTKAKQPYREDAEWLKGQQIGLGAFSSCYQAQDVGTGTLMAVKQVTYVRNTSSEQEEVVEALREEIRMMGHLNHPNIIRMLGATCEKSNYNLFIEWMAGGSVAHLLSKYGAFKESVVINYTEQLLRGLSYLHENQIIHRDVKGANLLIDSTGQRLRIADFGAAARLASKGTGAGEFQGQLLGTIAFMAPEVLRGQQYGRSCDVWSVGCAIIEMACAKPPWNAEKHSNHLALIFKIASATTAPSIPSHLSPGLRDVAVRCLELQPQDRPPSRELLKHPVFRTTW
On to B1, for which the “MAPK activity relative to control cells transfected with plasmid lacking a MEKK 1 cDNA insert” value with MAPK is reported as “four to five times greater”. In the test on GST-Ras^V12, the “binding to GST-Ras^V12(GTPγS) relative to GST-Ras^V12(GDP)” value is listed as “at least 5 fold” and the “binding to GST-Ras^V12 (in words)” value is “capable of binding GST-Ras^V12 in a GTP dependent manner”. Also, the “phosphorylation of p38 MAPK” value in the test on p38 MAPK is “only induces weak phosphorylation of p38 MAPK”. In addition, the “phosphorylation of p42 and p44 MAPK” value in test [1] is “does induce phosphorylation of p42 and p44 MAPK”. In addition, the “phosphorylation of MEK-1” value in the test on MEK-1 (Mono Q fractions of transfected COS cells) is recorded as “capable of phosphorylating MEK-1”. For the same molecule, in the test on MEK-1 (setting [2]), the “time at which phosphorylation of kinase MEK-1 and MEKK was visible” value was 5 min; the “time of maximal phosphorylation of kinase MEK-1 and MEKK” value is on record as “about 20 minutes”.
